The values below come from PMC10540216, “Activity Guided Azide-methyllysine Photo-trapping for Substrate Profiling of Lysine Demethylases” (Journal of the American Chemical Society, 2023).

Sequences and labels used below:
B1: TIF1B_HUMAN (protein, UniProt Q13263 2-835, looked up)
Transcription intermediary …: AASAAAASAAAASAASGSPGPGEGSAGGEKRSTAPSAAASASASAAASSPAGGGAEALELLEHCGVCRERLRPEREPRLLPCLHSACSACLGPAAPAAANSSGDGGAAGDGTVVDCPVCKQQCFSKDIVENYFMRDSGSKAATDAQDANQCCTSCEDNAPATSYCVECSEPLCETCVEAHQRVKYTKDHTVRSTGPAKSRDGERTVYCNVHKHEPLVLFCESCDTLTCRDCQLNAHKDHQYQFLEDAVRNQRKLLASLVKRLGDKHATLQKSTKEVRSSIRQVSDVQKRVQVDVKMAILQIMKELNKRGRVLVNDAQKVTEGQQERLERQHWTMTKIQKHQEHILRFASWALESDNNTALLLSKKLIYFQLHRALKMIVDPVEPHGEMKFQWDLNAWTKSAEAFGKIVAERPGTNSTGPAPMAPPRAPGPLSKQGSGSSQPMEVQEGYGFGSGDDPYSSAEPHVSGVKRSRSGEGEVSGLMRKVPRVSLERLDLDLTADSQPPVFKVFPGSTTEDYNLIVIERGAAAAATGQPGTAPAGTPGAPPLAGMAIVKEEETEAAIGAPPTATEGPETKPVLMALAEGPGAEGPRLASPSGSTSSGLEVVAPEGTSAPGGGPGTLDDSATICRVCQKPGDLVMCNQCEFCFHLDCHLPALQDVPGEEWSCSLCHVLPDLKEEDGSLSLDGADSTGVVAKLSPANQRKCERVLLALFCHEPCRPLHQLATDSTFSLDQPGGTLDLTLIRARLQEKLSPPYSSPQEFAQDVGRMFKQFNKLTEDKADVQSIIGLQRFFETRMNEAFGDTKFSAVLVEPPPMSLPGAGLSSQELSGGPGDGP
B2: RNZ2_HUMAN (protein, UniProt Q9BQ52 17-826, looked up)
Zinc phosphodiesterase ELAC …: SQGRTISQAPARRERPRKDPLRHLRTREKRGPSGCSGGPNTVYLQVVAAGSRDSGAALYVFSEFNRYLFNCGEGVQRLMQEHKLKVARLDNIFLTRMHWSNVGGLSGMILTLKETGLPKCVLSGPPQLEKYLEAIKIFSGPLKGIELAVRPHSAPEYEDETMTVYQIPIHSEQRRGKHQPWQSPERPLSRLSPERSSDSESNENEPHLPHGVSQRRGVRDSSLVVAFICKLHLKRGNFLVLKAKEMGLPVGTAAIAPIIAAVKDGKSITHEGREILAEELCTPPDPGAAFVVVECPDESFIQPICENATFQRYQGKADAPVALVVHMAPASVLVDSRYQQWMERFGPDTQHLVLNENCASVHNLRSHKIQTQLNLIHPDIFPLLTSFRCKKEGPTLSVPMVQGECLLKYQLRPRREWQRDAIITCNPEEFIVEALQLPNFQQSVQEYRRSAQDGPAPAEKRSQYPEIIFLGTGSAIPMKIRNVSATLVNISPDTSLLLDCGEGTFGQLCRHYGDQVDRVLGTLAAVFVSHLHADHHTGLPSILLQRERALASLGKPLHPLLVVAPNQLKAWLQQYHNQCQEVLHHISMIPAKCLQEGAEISSPAVERLISSLLRTCDLEEFQTCLVRHCKHAFGCALVHTSGWKVVYSGDTMPCEALVRMGKDATLLIHEATLEDGLEEEAVEKTHSTTSQAISVGMRMNAEFIMLNHFSQRYAKVPLFSPNFSEKVGVAFDHMKVCFGDFPTMPKLIPPLKALFAGDIEEMEERREKRELRQVRAALLSRELAGGLEDGEPQQKRAHTEEPQAKKVRAQ
B3: ZC3HE_HUMAN (protein, UniProt Q6PJT7 1-736, looked up)
Zinc finger CCCH …: MEIGTEISRKIRSAIKGKLQELGAYVDEELPDYIMVMVANKKSQDQMTEDLSLFLGNNTIRFTVWLHGVLDKLRSVTTEPSSLKSSDTNIFDSNVPSNKSNFSRGDERRHEAAVPPLAIPSARPEKRDSRVSTSSQESKTTNVRQTYDDGAATRLMSTVKPLREPAPSEDVIDIKPEPDDLIDEDLNFVQENPLSQKKPTVTLTYGSSRPSIEIYRPPASRNADSGVHLNRLQFQQQQNSIHAAKQLDMQSSWVYETGRLCEPEVLNSLEETYSPFFRNNSEKMSMEDENFRKRKLPVVSSVVKVKKFNHDGEEEEEDDDYGSRTGSISSSVSVPAKPERRPSLPPSKQANKNLILKAISEAQESVTKTTNYSTVPQKQTLPVAPRTRTSQEELLAEVVQGQSRTPRISPPIKEEETKGDSVEKNQGTQQRQLLSRLQIDPVMAETLQMSQDYYDMESMVHADTRSFILKKPKLSEEVVVAPNQESGMKTADSLRVLSGHLMQTRDLVQPDKPASPKFIVTLDGVPSPPGYMSDQEEDMCFEGMKPVNQTAASNKGLRGLLHPQQLHLLSRQLEDPNGSFSNAEMSELSVAQKPEKLLERCKYWPACKNGDECAYHHPISPCKAFPNCKFAEKCLFVHPNCKYDAKCTKPDCPFTHVSRRIPVLSPKPAVAPPAPPSSSQLCRYFPACKKMECPFYHPKHCRFNTQCTRPDCTFYHPTINVPPRHALKWIRPQTSE
B4: CMTR1_HUMAN (protein, UniProt Q8N1G2 1-835, looked up)
Cap-specific mRNA …: MKRRTDPECTAPIKKQKKRVAELALSLSSTSDDEPPSSVSHGAKASTTSLSGSDSETEGKQHSSDSFDDAFKADSLVEGTSSRYSMYNSVSQKLMAKMGFREGEGLGKYSQGRKDIVEASSQKGRRGLGLTLRGFDQELNVDWRDEPEPSACEQVSWFPECTTEIPDTQEMSDWMVVGKRKMIIEDETEFCGEELLHSVLQCKSVFDVLDGEEMRRARTRANPYEMIRGVFFLNRAAMKMANMDFVFDRMFTNPRDSYGKPLVKDREAELLYFADVCAGPGGFSEYVLWRKKWHAKGFGMTLKGPNDFKLEDFYSASSELFEPYYGEGGIDGDGDITRPENISAFRNFVLDNTDRKGVHFLMADGGFSVEGQENLQEILSKQLLLCQFLMALSIVRTGGHFICKTFDLFTPFSVGLVYLLYCCFERVCLFKPITSRPANSERYVVCKGLKVGIDDVRDYLFAVNIKLNQLRNTDSDVNLVVPLEVIKGDHEFTDYMIRSNESHCSLQIKALAKIHAFVQDTTLSEPRQAEIRKECLRLWGIPDQARVAPSSSDPKSKFFELIQGTEIDIFSYKPTLLTSKTLEKIRPVFDYRCMVSGSEQKFLIGLGKSQIYTWDGRQSDRWIKLDLKTELPRDTLLSVEIVHELKGEGKAQRKISAIHILDVLVLNGTDVREQHFNQRIQLAEKFVKAVSKPSRPDMNPIRVKEVYRLEEMEKIFVRLEMKIIKGSSGTPKLSYTGRDDRHFVPMGLYIVRTVNEPWTMGFSKSFKKKFFYNKKTKDSTFDLPADSIAPFHICYYGRLFWEWGDGIRVHDSQKPQDQDKLSKEDVLSFIQMHRA
B5: FUBP2_HUMAN (protein, UniProt Q92945 2-711, looked up)
Far upstream element-binding …: SDYSTGGPPPGPPPPAGGGGGAGGAGGGPPPGPPGAGDRGGGGPGGGGPGGGSAGGPSQPPGGGGPGIRKDAFADAVQRARQIAAKIGGDAATTVNNSTPDFGFGGQKRQLEDGDQPESKKLASQGDSISSQLGPIHPPPRTSMTEEYRVPDGMVGLIIGRGGEQINKIQQDSGCKVQISPDSGGLPERSVSLTGAPESVQKAKMMLDDIVSRGRGGPPGQFHDNANGGQNGTVQEIMIPAGKAGLVIGKGGETIKQLQERAGVKMILIQDGSQNTNVDKPLRIIGDPYKVQQACEMVMDILRERDQGGFGDRNEYGSRIGGGIDVPVPRHSVGVVIGRSGEMIKKIQNDAGVRIQFKQDDGTGPEKIAHIMGPPDRCEHAARIINDLLQSLRSGPPGPPGGPGMPPGGRGRGRGQGNWGPPGGEMTFSIPTHKCGLVIGRGGENVKAINQQTGAFVEISRQLPPNGDPNFKLFIIRGSPQQIDHAKQLIEEKIEGPLCPVGPGPGGPGPAGPMGPFNPGPFNQGPPGAPPHAGGPPPHQYPPQGWGNTYPQWQPPAPHDPSKAAAAAADPNAAWAAYYSHYYQQPPGPVPGPAPAPAAPPAQGEPPQPPPTGQSDYTKAWEEYYKKIGQQPQQPGAPPQQDYTKAWEEYYKKQAQVATGGGPGAPPGSQPDYSAAWAEYYRQQAAYYGQTPGPGGPQPPPTQQGQQQAQ
B6: TF3C4_HUMAN (protein, UniProt Q9UKN8 1-822, looked up)
General transcription factor …: MNTADQARVGPADDGPAPSGEEEGEGGGEAGGKEPAADAAPGPSAAFRLMVTRREPAVKLQYAVSGLEPLAWSEDHRVSVSTARSIAVLELICDVHNPGQDLVIHRTSVPAPLNSCLLKVGSKTEVAECKEKFAASKDPTVSQTFMLDRVFNPEGKALPPMRGFKYTSWSPMGCDANGRCLLAALTMDNRLTIQANLNRLQWVQLVDLTEIYGERLYETSYRLSKNEAPEGNLGDFAEFQRRHSMQTPVRMEWSGICTTQQVKHNNECRDVGSVLLAVLFENGNIAVWQFQLPFVGKESISSCNTIESGITSPSVLFWWEYEHNNRKMSGLIVGSAFGPIKILPVNLKAVKGYFTLRQPVILWKEMDQLPVHSIKCVPLYHPYQKCSCSLVVAARGSYVFWCLLLISKAGLNVHNSHVTGLHSLPIVSMTADKQNGTVYTCSSDGKVRQLIPIFTDVALKFEHQLIKLSDVFGSVRTHGIAVSPCGAYLAIITTEGMINGLHPVNKNYQVQFVTLKTFEEAAAQLLESSVQNLFKQVDLIDLVRWKILKDKHIPQFLQEALEKKIESSGVTYFWRFKLFLLRILYQSMQKTPSEALWKPTHEDSKILLVDSPGMGNADDEQQEEGTSSKQVVKQGLQERSKEGDVEEPTDDSLPTTGDAGGREPMEEKLLEIQGKIEAVEMHLTREHMKRVLGEVYLHTWITENTSIPTRGLCNFLMSDEEYDDRTARVLIGHISKKMNKQTFPEHCSLCKEILPFTDRKQAVCSNGHIWLRCFLTYQSCQSLIYRRCLLHDSIARHPAPEDPDWIKRLLQSPCPFCDSPVF
B7: PLOD3_HUMAN (protein, UniProt O60568 25-738, looked up)
Multifunctional procollagen …: SDRPRGRDPVNPEKLLVITVATAETEGYLRFLRSAEFFNYTVRTLGLGEEWRGGDVARTVGGGQKVRWLKKEMEKYADREDMIIMFVDSYDVILAGSPTELLKKFVQSGSRLLFSAESFCWPEWGLAEQYPEVGTGKRFLNSGGFIGFATTIHQIVRQWKYKDDDDDQLFYTRLYLDPGLREKLSLNLDHKSRIFQNLNGALDEVVLKFDRNRVRIRNVAYDTLPIVVHGNGPTKLQLNYLGNYVPNGWTPEGGCGFCNQDRRTLPGGQPPPRVFLAVFVEQPTPFLPRFLQRLLLLDYPPDRVTLFLHNNEVFHEPHIADSWPQLQDHFSAVKLVGPEEALSPGEARDMAMDLCRQDPECEFYFSLDADAVLTNLQTLRILIEENRKVIAPMLSRHGKLWSNFWGALSPDEYYARSEDYVELVQRKRVGVWNVPYISQAYVIRGDTLRMELPQRDVFSGSDTDPDMAFCKSFRDKGIFLHLSNQHEFGRLLATSRYDTEHLHPDLWQIFDNPVDWKEQYIHENYSRALEGEGIVEQPCPDVYWFPLLSEQMCDELVAEMEHYGQWSGGRHEDSRLAGGYENVPTVDIHMKQVGYEDQWLQLLRTYVGPMTESLFPGYHTKARAVMNFVVRYRPDEQPSLRPHHDSSTFTLNVALNHKGLDYEGGGCRFLRYDCVISSPRKGWALLHPGRLTHYHEGLPTTWGTRYIMVSFVDP

This experiment has as its system KDM4A-I71AzF. The experiment can be described thus: CASI: photo-crosslinking with HEK293T cell extracts, StrepTactin enrichment and LC-MS/MS proteomics.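 Also: lysates from HEK293T cells pretreated with a KDM4 inhibitor to raise proteome methylation, affinity-purified after ±UV, gel-resolved, trypsin-digested, with exclusive unique peptides per protein averaged per condition.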 The class given is binding, human. The following applies: sheet "Final results but with 0.01".
As to B1, the “Fold change (+UV/-UV)” value was determined as 0.8.

Turning to B2, the “Fold change (+UV/-UV)” value is given as 0.5.

For the molecule B3, the “Fold change (+UV/-UV)” value is 4.

For the molecule B4, the “Fold change (+UV/-UV)” value was 3.

Regarding B5, the “Fold change (+UV/-UV)” value is 1.125.

Take B6: the “Fold change (+UV/-UV)” value was determined as 0.6667.

Consider B7, for which the “Fold change (+UV/-UV)” value came to 0.
